# B1: peresolimab (antibody, V domains shown)
# VH: QVQLVQSGAEVKKPGASVKVSCKVSGYSLSKYDMSWVRQAPGKGLEWMGIIYTSGYTDYAQKFQGRVTMTEDTSTDTAYMELSSLRSEDTAVYYCATGNPYYTNGFNSWGQGTLVTVSS
# VL: DIQMTQSPSSLSASVGDRVTITCQASQSPNNLLAWYQQKPGKAPKLLIYGASDLPSGVPSRFSGSGSGTDFTLTISSLQPEDFATYYCQNNYYVGPVSYAFGGGTKVEIK
# Target: human PD-1-ECD-His (human)
# Assay: SPR (Biacore), 37 °C
# Sequence of human PD-1-ECD-His (human) (chain, as listed by the source): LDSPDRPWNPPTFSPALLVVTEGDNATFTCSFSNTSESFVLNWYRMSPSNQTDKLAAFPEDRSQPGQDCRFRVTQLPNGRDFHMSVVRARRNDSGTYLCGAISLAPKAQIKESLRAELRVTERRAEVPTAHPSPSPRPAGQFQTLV
binder,measurement,value
B1,Kd,2.29 nM
same,koff,0.000701 s⁻¹
same,kon,307000 M⁻¹ s⁻¹

# Source: patent publication US20260070983A1 (Eli Lilly, published 2026)
